Measured values taken from the supplement of paper PMC7877785.
± gives the uncertainty stated by the source.

Assay: self-splicing fitness, log relative to wild type (ln ratio); higher = more splicing; Tetrahymena group I intron in knt gene, E. coli kanamycin selection, DiMSum; sequences stand for … in CUCUCU…GGAGGGAAAAGUUAUCAGGCAUGCACCUGGUAGCUAGUCUUUAAACCAAUAGAUUGCAUCGGUUUAAAAGGCAAGACCGUCAAAUUGCGGGAAAGGGGUCAACAGCCGUUCAGUACCAAGUCUCAGGGGAAACUUUGAGAUGGCCUUGCAAAGGGUAUGGUAAUAAGCUGACGGACAUGGUCCUAACCACGCAGCCAAGUCCUAAGUCAACAGAUCUUCUGUUGAUAUGGAUGCAGUUCACAGACUAAAUGUCGGUCGGGGAAGAUGUAUUCUUCUCAUAAGAUAUAGUCGGACCUCUCCUUAAUGGGAGCUAGCGGAUGAAGUGAUGCAACACUGGAGCCGCUGGGAACUAAUUUGUAUGCGAAAGUAUAUUGAUUAGUUUUGGAGUACUCGUGGUCG
Procedure, shortened: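 Fitness was computed with DiMSum as the error-weighted combination of replicate fold changes, kanamycin versus none, each normalised to wild type. The library randomised all eight intron nucleotides of the P1ex region, with the intron placed in the knt kanamycin-resistance gene on pET-22b(+) in E. coli BL21(DE3). Six replicate transformations were grown overnight at 37°C or 30°C on LB agar with or without 25 μg/mL kanamycin, plus 100 μg/mL carbenicillin, 50 μM IPTG and 0.2% rhamnose. Pooled colonies were amplicon-sequenced on an Illumina HiSeq 2500.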

| Sequence | self-splicing fitness (ln) (30 °C) | self-splicing fitness (ln) (37 °C) |
| --- | --- | --- |
| GCGUAGCAAUAUUACGAAUC | -1.05 ± 0.17 | -0.37 ± 0.2 |
| GCGUAGCAAUAUUACGAAUU | -1.52 ± 0.1 | -0.549 ± 0.12 |
| GCGUAGCAAUAUUACGACAA | -0.888 ± 0.12 | -0.789 ± 0.13 |
| GCGUAGCAAUAUUACGAUAG | -2.2 ± 0.26 | -1.83 ± 0.34 |
| GCGUAGCAAUAUUACGAUCA | -0.167 ± 0.14 | 0.0769 ± 0.14 |
| GCGUAGCAAUAUUACGAUCU | -1.34 ± 0.17 | -0.0119 ± 0.18 |
| GCGUAGCAAUAUUACGAUGU | -2.18 ± 0.068 | -1.15 ± 0.096 |
| GCGUAGCAAUAUUACGAUUU | 0.253 ± 0.088 | -0.282 ± 0.09 |
| GCGUAGCAAUAUUACGCAAG | -3.32 ± 0.41 | – |
| GCGUAGCAAUAUUACGCCAC | – | -2.26 ± 0.29 |
| GCGUAGCAAUAUUACGCCAG | -3.15 ± 0.41 | -2.32 ± 0.37 |
| GCGUAGCAAUAUUACGCCGG | -2.21 ± 0.21 | -3.92 ± 0.42 |
| GCGUAGCAAUAUUACGCGCA | – | -1.07 ± 0.35 |
| GCGUAGCAAUAUUACGCGUU | -1.14 ± 0.19 | -1.55 ± 0.22 |
| GCGUAGCAAUAUUACGGACU | -0.176 ± 0.13 | -0.78 ± 0.19 |
| GCGUAGCAAUAUUACGGAGA | -2.63 ± 0.21 | -1.87 ± 0.23 |
| GCGUAGCAAUAUUACGGAUG | -1.41 ± 0.16 | -1.98 ± 0.18 |
| GCGUAGCAAUAUUACGGCAA | 0.755 ± 0.46 | -1.01 ± 0.27 |
| GCGUAGCAAUAUUACGGCUU | -1.21 ± 0.11 | -0.0921 ± 0.14 |
| GCGUAGCAAUAUUACGUAGA | -3.35 ± 0.19 | -2.88 ± 0.29 |
| GCGUAGCAAUAUUACGUCUA | -1.06 ± 0.22 | -0.924 ± 0.15 |

| Sequence | self-splicing fitness (ln) (30 °C) | self-splicing fitness (ln) (37 °C) |
| --- | --- | --- |
| GCUAAGCAAUAUUACGACAA | -1.43 ± 0.18 | -2.5 ± 0.2 |
| GCUAAGCAAUAUUACGACAC | -0.804 ± 0.074 | 0.369 ± 0.11 |
| GCUAAGCAAUAUUACGACGC | -1.52 ± 0.16 | -0.603 ± 0.18 |
| GCUAAGCAAUAUUACGAGCU | -2.25 ± 0.33 | -0.165 ± 0.31 |
| GCUAAGCAAUAUUACGAGGC | -1.85 ± 0.21 | -1.6 ± 0.33 |
| GCUAAGCAAUAUUACGAGUA | -1.73 ± 0.18 | -1.31 ± 0.12 |
| GCUAAGCAAUAUUACGAUAC | -1.9 ± 0.12 | -0.355 ± 0.11 |
| GCUAAGCAAUAUUACGAUUG | -2.78 ± 0.11 | -1.17 ± 0.12 |
| GCUAAGCAAUAUUACGCCUA | -1.55 ± 0.3 | -0.198 ± 0.2 |
| GCUAAGCAAUAUUACGCGAG | -2.6 ± 0.13 | -1.18 ± 0.14 |
| GCUAAGCAAUAUUACGCUCG | -0.473 ± 0.094 | -0.832 ± 0.13 |
| GCUAAGCAAUAUUACGCUCU | -1.11 ± 0.13 | 0.486 ± 0.15 |
| GCUAAGCAAUAUUACGCUUA | -1.74 ± 0.26 | -3.17 ± 0.43 |
| GCUAAGCAAUAUUACGGACU | -1.66 ± 0.12 | -0.74 ± 0.14 |
| GCUAAGCAAUAUUACGGAGC | – | -2.4 ± 0.34 |
| GCUAAGCAAUAUUACGUAGC | -4.22 ± 0.26 | -2.16 ± 0.18 |
| GCUAAGCAAUAUUACGUAUG | -2.2 ± 0.1 | -1.12 ± 0.14 |
| GCUAAGCAAUAUUACGUGUC | -2.75 ± 0.13 | -2.22 ± 0.14 |
| GCUAAGCAAUAUUACGUUAU | -1.7 ± 0.072 | -1.48 ± 0.12 |
| GCUAAGCAAUAUUACGUUCU | -1.04 ± 0.052 | -0.467 ± 0.066 |
| GCUCAGCAAUAUUACGAAAG | -1.71 ± 0.11 | -1.93 ± 0.13 |

| Sequence | self-splicing fitness (ln) (30 °C) | self-splicing fitness (ln) (37 °C) |
| --- | --- | --- |
| GCUCAGCAAUAUUACGACCA | -0.232 ± 0.18 | -0.532 ± 0.15 |
| GCUCAGCAAUAUUACGACCC | -0.644 ± 0.14 | 0.378 ± 0.19 |
| GCUCAGCAAUAUUACGAGAA | -0.468 ± 0.12 | 0.0758 ± 0.099 |
| GCUCAGCAAUAUUACGAUGC | -1.47 ± 0.12 | -0.954 ± 0.15 |
| GCUCAGCAAUAUUACGAUUC | -0.0882 ± 0.054 | 0.832 ± 0.075 |
| GCUCAGCAAUAUUACGCAAC | -1.28 ± 0.16 | -1.07 ± 0.2 |
| GCUCAGCAAUAUUACGCAUU | -0.452 ± 0.078 | -0.0385 ± 0.1 |
| GCUCAGCAAUAUUACGCCCC | 0.441 ± 0.32 | -0.222 ± 0.41 |
| GCUCAGCAAUAUUACGCCUA | -0.718 ± 0.23 | -0.514 ± 0.22 |
| GCUCAGCAAUAUUACGCGCU | -1.42 ± 0.11 | -0.545 ± 0.14 |
| GCUCAGCAAUAUUACGGAAU | -0.424 ± 0.083 | 0.224 ± 0.12 |
| GCUCAGCAAUAUUACGGCAC | -1.11 ± 0.21 | -0.084 ± 0.21 |
| GCUCAGCAAUAUUACGGCUG | -2.99 ± 0.29 | -2.1 ± 0.34 |
| GCUCAGCAAUAUUACGGUCG | -2.35 ± 0.14 | -0.924 ± 0.14 |
| GCUCAGCAAUAUUACGUAAU | -0.739 ± 0.072 | 0.436 ± 0.092 |
| GCUCAGCAAUAUUACGUACA | -2.16 ± 0.12 | -0.932 ± 0.14 |
| GCUCAGCAAUAUUACGUACC | 0.00766 ± 0.067 | 0.487 ± 0.1 |
| GCUCAGCAAUAUUACGUACG | -1.72 ± 0.11 | -0.485 ± 0.09 |
| GCUCAGCAAUAUUACGUCAA | -1.84 ± 0.16 | -1.77 ± 0.22 |
